Source: patent US20070105152

Experiments:
AY(AcK)EV = target: T1, AY(AcK)EV
T1 chain: AYKEV

AcGG(AcK)AP = target: T2, AcGG(AcK)AP
T2 chain: GGKAP

AcGG(AcK)APR = target: T3, AcGG(AcK)APR
T3 chain: GGKAPR

AcGG(AcK)APRK = target: T4, AcGG(AcK)APRK
T4 chain: GGKAPRK

AcGG(AcK)APRKQ = target: T5, AcGG(AcK)APRKQ
T5 chain: GGKAPRKQ

AcKSTGG(AcK)AP = target: T6, AcKSTGG(AcK)AP
T6 chain: KSTGGKAP

AcSTGG(AcK)APR = target: T7, AcSTGG(AcK)APR
T7 chain: STGGKAPR

AcSTGG(AcK)AP = target: T8, AcSTGG(AcK)AP
T8 chain: STGGKAP

AcTGG(AcK)APRK = target: T9, AcTGG(AcK)APRK
T9 chain: TGGKAPRK

AcTGG(AcK)APR = target: T10, AcTGG(AcK)APR
T10 chain: TGGKAPR

AcTGG(AcK)AP = target: T11, AcTGG(AcK)AP
T11 chain: TGGKAP

[1] = target: T12, Ala-Val-AcLys-Phe-Nle (SIRT1 library hit, on bead)
T12 chain: AVKFMXXRM

[2] = target: T13, Asn-His-AcLys-Ile-Ile (SIRT1 library hit, on bead)
T13 chain: NHKIIXXRM

[3] = target: T14, Asn-His-AcLys-Leu-Leu (SIRT1 library hit, on bead)
T14 chain: NHKLLXXRM

[4] = target: T15, Asp-Ser-AcLys-Gly-Ala (SIRT1 library hit, on bead)
T15 chain: DSKGAXXRM

[5] = target: T16, Asp-Val-AcLys-Nle-His (SIRT1 library hit, on bead)
T16 chain: DVKMHXXRM

EL(AcK)AS = target: T17, EL(AcK)AS
T17 chain: ELKAS

[6] = target: T18, Gln-Pro-AcLys-Gln-Ile (SIRT1 library hit, on bead)
T18 chain: QPKQIXXRM

[7] = target: T19, Gly-Thr-AcLys-Thr-Gly (SIRT1 library hit, on bead)
T19 chain: GTKTGXXRM

[8] = target: T20, Gly-Tyr-AcLys-Pro-Thr (SIRT1 library hit, on bead)
T20 chain: GYKPTXXRM

HK(AcK)LM = target: T21, HK(AcK)LM
T21 chain: HKKLM

[9] = target: T22, His-Me2Arg-AcLys-Nle-Pro (SIRT1 library hit, on bead)
T22 chain: HRKMPXXRM

[10] = target: T23, His-Trp-AcLys-Thr-His (SIRT1 library hit, on bead)
T23 chain: HWKTHXXRM

[11] = target: T24, Ile-Phe-AcLys-Thr-Phe (SIRT1 library hit, on bead)
T24 chain: IFKTFXXRM

[12] = target: T25, Ile-Tyr-AcLys-Asn-Asp (SIRT1 library hit, on bead)
T25 chain: IYKNDXXRM

LNle(AcK)VG = target: T26, LNle(AcK)VG
T26 chain: LLKVG

[13] = target: T27, Leu-Asn-AcLys-Asp-Gln (SIRT1 library hit, on bead)
T27 chain: LNKDQXXRM

[14] = target: T28, Me2Arg-Ala-AcLys-Nle-Asp (SIRT1 library hit, on bead)
T28 chain: RAKMDXXRM

[15] = target: T29, Me2Arg-Phe-AcLys-Pro-Glu (SIRT1 library hit, on bead)
T29 chain: RFKPEXXRM

[16] = target: T30, Me2Arg-Pro-AcLys-Gln-Phe (SIRT1 library hit, on bead)
T30 chain: RPKQFXXRM

[17] = target: T31, Me2Arg/Pro-Me2Arg/Pro-AcLys-Ser-Ile (SIRT1 library hit, on bead)
T31 chain: RPKSIXXRM

[18] = target: T32, Me2Arg/Trp-Me2Arg/Trp-AcLys-Ile-Thr (SIRT1 library hit, on bead)
T32 chain: RWKITXXRM

Me2RP(AcK)QF = target: T33, Me2RP(AcK)QF
T33 chain: RPKQF

Me2RP(AcK)SI = target: T34, Me2RP(AcK)SI
T34 chain: RPKSI

NH(AcK)II = target: T35, NH(AcK)II
T35 chain: NHKII

[19] = target: T36, Nle-Nle-AcLys-Gln-Gln (SIRT1 library hit, on bead)
T36 chain: MMKQQXXRM

[20] = target: T37, Phe-Glu-AcLys-Tyr-Me2Arg (SIRT1 library hit, on bead)
T37 chain: FEKYRXXRM

[21] = target: T38, Pro-Gly-AcLys-Leu-Tyr (SIRT1 library hit, on bead)
T38 chain: PGKLYXXRM

[22] = target: T39, Pro-Ile-AcLys-Glu-Gln (SIRT1 library hit, on bead)
T39 chain: PIKEQXXRM

[23] = target: T40, Pro/Trp-Pro/Trp-AcLys-Ile-Thr (SIRT1 library hit, on bead)
T40 chain: WPKITXXRM

QNle(AcK)GF = target: T41, QNle(AcK)GF
T41 chain: QLKGF

QP(AcK)QI = target: T42, QP(AcK)QI
T42 chain: QPKQI

[24] = target: T43, Ser-Asp-AcLys-Tyr-His (SIRT1 library hit, on bead)
T43 chain: SDKYHXXRM

[25] = target: T44, Ser-Tyr-AcLys-Gln-Trp (SIRT1 library hit, on bead)
T44 chain: SYKQWXXRM

[26] = target: T45, Thr-Glu-AcLys-Gln-Glu (SIRT1 library hit, on bead)
T45 chain: TEKQEXXRM

[27] = target: T46, Thr-Pro-AcLys-Asn-Ala (SIRT1 library hit, on bead)
T46 chain: TPKNAXXRM

[28] = target: T47, Trp-Gly-AcLys-Ser-Pro (SIRT1 library hit, on bead)
T47 chain: WGKSPXXRM

[29] = target: T48, Trp-His-AcLys-Phe-Gln (SIRT1 library hit, on bead) (not fully specified)
T48 chain: WHKFQXXRM

[30] = target: T49, Trp-His-AcLys-Phe-Glu (SIRT1 library hit, on bead) (not fully specified)
T49 chain: WHKFEXXRM

[31] = target: T50, Trp-Pro-AcLys-Trp-Gln (SIRT1 library hit, on bead) (not fully specified)
T50 chain: WPKWQXXRM

[32] = target: T51, Trp-Trp-AcLys-His-Gly (SIRT1 library hit, on bead) (not fully specified)
T51 chain: WWKHGXXRM

VQ(AcK)II = target: T52, VQ(AcK)II
T52 chain: VQKII

[33] = target: T53, Val-Gln-AcLys-Ile-Ile (SIRT1 library hit, on bead) (not fully specified)
T53 chain: VQKIIXXRM

WH(AcK)FQ = target: T54, WH(AcK)FQ
T54 chain: WHKFQ

WH(AcK)QQ = target: T55, WH(AcK)QQ
T55 chain: WHKQQ

WP(AcK)QQ = target: T56, WP(AcK)QQ
T56 chain: WPKQQ

B1: human NAD+-dependent deacetylase SIRT1 (protein)
chain: MADEAALALQPGGSPSAAGADREAASSPAGEPLRKRPRRDGPGLERSPGEPGGAAPEREVPAAARGCPGAAAAALWREAEAEAAAAGGEQEAQATAAAGEGDNGPGLQGPSREPPLADNLYDEDDDDEGEEEEEAAAAAIGYRDNLLFGDEIITNGFHSCESDEEDRASHASSSDWTPRPRIGPYTFVQQHLMIGTDPRTILKDLLPETIPPPELDDMTLWQIVINILSEPPKRKKRKDINTIEDAVKLLQECKKIIVLTGAGVSVSCGIPDFRSRDGIYARLAVDFPDLPDPQAMFDIEYFRKDPRPFFKFAKEIYPGQFQPSLCHKFIALSDKEGKLLRNYTQNIDTLEQVAGIQRIIQCHGSFATASCLICKYKVDCEAVRGDIFNQVVPRCPRCPADEPLAIMKPEIVFFGENLPEQFHRAMKYDKDEVDLLIVIGSSLKVRPVALIPSSIPHEVPQILINREPLPHLHFDVELLGDCDVIINELCHRLGGEYAKLCCNPVKLSEITEKPPRTQKELAYLSELPPTPLHVSEDSSSPERTSPPDSSVIVTLLDQAAKSNDDLDVSESKGCMEEKPQEVQTSRNVESIAEQMENPDLKNVGSSTGEKNERTSVAGTVRKCWPNRVAKEQISRRLDGNQYLFLPPNRYIFHGAEVYSDSEDDVLSSSSCGSNSDSGTCQSPSLEEPMEDESEIEEFYNGLEDEPDVPERAGGAGFGTDGDDQEAINEAISVKQEVTDMNYPSNKS
AY(AcK)EV
  kcat/Km: 5320 M⁻¹ s⁻¹
AcGG(AcK)AP
  Relative kcat/Km (relative to AcTGG(AcK)APRK = 1): 1.72
AcGG(AcK)APR
  Relative kcat/Km (relative to AcTGG(AcK)APRK = 1): 0.68
AcGG(AcK)APRK
  Relative kcat/Km (relative to AcTGG(AcK)APRK = 1): 1.01
AcGG(AcK)APRKQ
  Relative kcat/Km (relative to AcTGG(AcK)APRK = 1): 0.8
AcKSTGG(AcK)AP
  Relative kcat/Km (relative to AcTGG(AcK)APRK = 1): 0.71
AcSTGG(AcK)APR
  Relative kcat/Km (relative to AcTGG(AcK)APRK = 1): 0.67
AcSTGG(AcK)AP
  Relative kcat/Km (relative to AcTGG(AcK)APRK = 1): 1.61
AcTGG(AcK)APRK
  Relative kcat/Km (relative to AcTGG(AcK)APRK = 1): 1
AcTGG(AcK)APR
  Relative kcat/Km (relative to AcTGG(AcK)APRK = 1): 0.64
AcTGG(AcK)AP
  Relative kcat/Km (relative to AcTGG(AcK)APRK = 1): 0.54
[1]
  on-bead deacetylation, biotin and streptavidin quantum dot fluorescence, among the 45 brightest beads: hits from the SIRT1 combinatorial library screen
[2]
  on-bead deacetylation, biotin and streptavidin quantum dot fluorescence, among the 45 brightest beads: hits from the SIRT1 combinatorial library screen
[3]
  on-bead deacetylation, biotin and streptavidin quantum dot fluorescence, among the 45 brightest beads: hits from the SIRT1 combinatorial library screen
[4]
  on-bead deacetylation, biotin and streptavidin quantum dot fluorescence, among the 45 brightest beads: hits from the SIRT1 combinatorial library screen
[5]
  on-bead deacetylation, biotin and streptavidin quantum dot fluorescence, among the 45 brightest beads: hits from the SIRT1 combinatorial library screen
EL(AcK)AS
  kcat/Km: 0.00139 M⁻¹ s⁻¹
[6]
  on-bead deacetylation, biotin and streptavidin quantum dot fluorescence, among the 45 brightest beads: hits from the SIRT1 combinatorial library screen
[7]
  on-bead deacetylation, biotin and streptavidin quantum dot fluorescence, among the 45 brightest beads: hits from the SIRT1 combinatorial library screen
[8]
  on-bead deacetylation, biotin and streptavidin quantum dot fluorescence, among the 45 brightest beads: hits from the SIRT1 combinatorial library screen
HK(AcK)LM
  kcat/Km: 3110 M⁻¹ s⁻¹
[9]
  on-bead deacetylation, biotin and streptavidin quantum dot fluorescence, among the 45 brightest beads: hits from the SIRT1 combinatorial library screen
[10]
  on-bead deacetylation, biotin and streptavidin quantum dot fluorescence, among the 45 brightest beads: hits from the SIRT1 combinatorial library screen
[11]
  on-bead deacetylation, biotin and streptavidin quantum dot fluorescence, among the 45 brightest beads: hits from the SIRT1 combinatorial library screen
[12]
  on-bead deacetylation, biotin and streptavidin quantum dot fluorescence, among the 45 brightest beads: hits from the SIRT1 combinatorial library screen
LNle(AcK)VG
  kcat/Km: 0.00161 M⁻¹ s⁻¹
[13]
  on-bead deacetylation, biotin and streptavidin quantum dot fluorescence, among the 45 brightest beads: hits from the SIRT1 combinatorial library screen
[14]
  on-bead deacetylation, biotin and streptavidin quantum dot fluorescence, among the 45 brightest beads: hits from the SIRT1 combinatorial library screen
[15]
  on-bead deacetylation, biotin and streptavidin quantum dot fluorescence, among the 45 brightest beads: hits from the SIRT1 combinatorial library screen
[16]
  on-bead deacetylation, biotin and streptavidin quantum dot fluorescence, among the 45 brightest beads: hits from the SIRT1 combinatorial library screen
[17]
  on-bead deacetylation, biotin and streptavidin quantum dot fluorescence, among the 45 brightest beads: hits from the SIRT1 combinatorial library screen
[18]
  on-bead deacetylation, biotin and streptavidin quantum dot fluorescence, among the 45 brightest beads: hits from the SIRT1 combinatorial library screen
Me2RP(AcK)QF
  kcat/Km: 0.0147 M⁻¹ s⁻¹
Me2RP(AcK)SI
  kcat/Km: 8360 M⁻¹ s⁻¹
NH(AcK)II
  kcat/Km: 3630 M⁻¹ s⁻¹
[19]
  on-bead deacetylation, biotin and streptavidin quantum dot fluorescence, among the 45 brightest beads: hits from the SIRT1 combinatorial library screen
[20]
  on-bead deacetylation, biotin and streptavidin quantum dot fluorescence, among the 45 brightest beads: hits from the SIRT1 combinatorial library screen
[21]
  on-bead deacetylation, biotin and streptavidin quantum dot fluorescence, among the 45 brightest beads: hits from the SIRT1 combinatorial library screen
[22]
  on-bead deacetylation, biotin and streptavidin quantum dot fluorescence, among the 45 brightest beads: hits from the SIRT1 combinatorial library screen
[23]
  on-bead deacetylation, biotin and streptavidin quantum dot fluorescence, among the 45 brightest beads: hits from the SIRT1 combinatorial library screen
QNle(AcK)GF
  kcat/Km: 0.00237 M⁻¹ s⁻¹
QP(AcK)QI
  fold preference in catalytic activity over WP(AcK)QQ: QP(AcK)QI is favored over WP(AcK)QQ by 18-fold
  kcat/Km: 0.0272 M⁻¹ s⁻¹
[24]
  on-bead deacetylation, biotin and streptavidin quantum dot fluorescence, among the 45 brightest beads: hits from the SIRT1 combinatorial library screen
[25]
  on-bead deacetylation, biotin and streptavidin quantum dot fluorescence, among the 45 brightest beads: hits from the SIRT1 combinatorial library screen
[26]
  on-bead deacetylation, biotin and streptavidin quantum dot fluorescence, among the 45 brightest beads: hits from the SIRT1 combinatorial library screen
[27]
  on-bead deacetylation, biotin and streptavidin quantum dot fluorescence, among the 45 brightest beads: hits from the SIRT1 combinatorial library screen
[28]
  on-bead deacetylation, biotin and streptavidin quantum dot fluorescence, among the 45 brightest beads: hits from the SIRT1 combinatorial library screen
[29]
  on-bead deacetylation, biotin and streptavidin quantum dot fluorescence, among the 45 brightest beads: hits from the SIRT1 combinatorial library screen
[30]
  on-bead deacetylation, biotin and streptavidin quantum dot fluorescence, among the 45 brightest beads: hits from the SIRT1 combinatorial library screen
[31]
  on-bead deacetylation, biotin and streptavidin quantum dot fluorescence, among the 45 brightest beads: hits from the SIRT1 combinatorial library screen
[32]
  on-bead deacetylation, biotin and streptavidin quantum dot fluorescence, among the 45 brightest beads: hits from the SIRT1 combinatorial library screen
VQ(AcK)II
  kcat/Km: ≥ 2470 M⁻¹ s⁻¹
[33]
  on-bead deacetylation, biotin and streptavidin quantum dot fluorescence, among the 45 brightest beads: hits from the SIRT1 combinatorial library screen
WH(AcK)FQ
  kcat/Km: 3290 M⁻¹ s⁻¹
WH(AcK)QQ
  fold difference in catalytic activity against WP(AcK)QQ: 7 fold
  kcat/Km: 0.00723 M⁻¹ s⁻¹
WP(AcK)QQ
  kcat/Km: 0.00154 M⁻¹ s⁻¹
